# Source: patent US20230123041A1 (IMMUNOME, published 2023)
# What was measured:
# [1] = target: T1, human ROR-1 endogenously expressed on JeKo-1 and MDA-MB-468 cells (human, UniProt Q01973 30-937); assay: flow cytometry, antibody titration on ROR-1 positive JeKo-1 cells, secondary antibody staining, Net MFI [left panel]
# T1 construct: whole, on cells; also called ROR-1 receptor; receptor tyrosine kinase like orphan receptor 1
# [2] = target: T1, human ROR-1 endogenously expressed on …; assay: cell-based or functional assay
# Hu/Cy/Rh ROR1 - His [3] = target: T2, Hu/Cy/Rh ROR1 - His (human/cynomolgus/rhesus (Hu/Cy/Rh), UniProt Q01973 30-403, limits assumed); assay: SPR, binding to purified His-tagged protein
# T2 construct: Purified His-tagged protein; also called human/cyno/rhesus ROR-1; not shown: His tag
# [4] = target: T1, human ROR-1 endogenously expressed on …; assay: flow cytometry, antibody titration on ROR-1 positive JeKo-1 cells, secondary antibody staining, Net MFI [right panel]
# Text: FIG. 27 illustrates a measurement of cell binding saturation data for the anti-ROR-1 antibodies generated by the methods described herein. […] Cells were washed, stained with secondary antibody and cell binding saturation was detected by flow cytometry and reported as mean fluorescent intensity (MFI).
# A cell binding saturation assay was developed to evaluate how well the anti_ROR-1 antibodies developed in Example 28 bound to endogenously expressed extracellular ROR-1 protein on cell lines. […] Briefly, two ROR-1 positive cell lines, JeKo-1 and MDA-MB-468, were incubated in a titration series concentration of each antibody construct. Cells were then washed and subjected to secondary antibody staining and detection by flow cytometry. Mean fluorescence (MFI) was determined by analysis on cytometer software. […] (See FIG. 27).
# [5] = target: T1, human ROR-1 endogenously expressed on …; assay: cellular binning by flow cytometry on MDA-MB-468 cells; antibody titrated, stained with labelled secondary antibody, % Top MFI [29C middle panel]
# Experimental: (§1) Next, the anti-ROR-1 antibodies were fluorescently labeled with a secondary antibody.
# (§2) In Step 2, a fluorescently labeled secondary antibody recognizing the novel antibodies was incubated with the samples.
# [6] = target: T1, human ROR-1 endogenously expressed on …; assay: cellular binning by flow cytometry on MDA-MB-468 cells; antibody titrated, stained with labelled secondary antibody, % Top MFI [29D middle panel]
# Experimental: as §1, §2
# [7] = target: T1, human ROR-1 endogenously expressed on …; assay: cellular binning by flow cytometry on MDA-MB-468 cells; ATX-P-885 titrated first, then a saturating dose of the competitor Dy650-UC961; partial inhibition [29C middle panel]
# Experimental: as §1, §2
# [8] = target: T1, human ROR-1 endogenously expressed on …; assay: cellular binning by flow cytometry on MDA-MB-468 cells; ATX-P-875 titrated first, then a saturating dose of the competitor 4A5-PE [29D left panel]
# Experimental: as §1, §2
# [9] = target: T1, human ROR-1 endogenously expressed on …; assay: cellular binning by flow cytometry on MDA-MB-468 cells; antibody titrated, stained with labelled secondary antibody, % Top MFI [29C left panel]
# Experimental: as §1, §2
# [10] = target: T1, human ROR-1 endogenously expressed on …; assay: cellular binning by flow cytometry on MDA-MB-468 cells; antibody titrated, stained with labelled secondary antibody, % Top MFI [29D left panel]
# Experimental: as §1, §2
# Hu/Cy/Rh ROR1 - His [11] = target: T2, Hu/Cy/Rh ROR1 - His; assay: SPR (Carterra); cell 'Kinetics (KD)' of 4A5 in the row and the column heads of the binning table; no unit is printed on the sheet, the four other KD cells equal the KD (M) values of Table 2 for Hu/Cy/Rh ROR1 - His
binder,measurement,setting,value
"UC961 (ATX-P-453) (antibody, V domains shown) VH: QVQLQESGPGLVKPSQTLSLTCTVSGYAFTAYNIHWVRQAPGQGLEWMGSFDPYDGGSSYNQKFKDRLTISKDTSKNQVVLTMTNMDPVDTATYYCARGWYYFDYWGHGTLVTVSS VL: DIVMTQTPLSLPVTPGEPASISCRASKSISKYLAWYQQKPGQAPRLLIYSGSTLQSGIPPRFSGSGYGTDFTLTINNIESEDAAYYFCQQHDESPYTFGEGTKVEIK",EC50 (read off the curve),[1],~0.02 nM
same,"percent receptor internalization relative to time zero (flow cytometry of antibody remaining on the surface, JeKo-1 and MDA-MB-468)",[2],≥ 75%
same,Kd,Hu/Cy/Rh ROR1 - His [3],4.69 nM
same,koff,Hu/Cy/Rh ROR1 - His [3],0.00591 s⁻¹
same,kon,Hu/Cy/Rh ROR1 - His [3],1.26e+06 M⁻¹ s⁻¹
same,EC50 (read off the curve),[4],~0.1 nM
"ATX-P-885 (antibody, human IgG1, kappa, V domains shown, also called mAb B) VH: QVQLQQWGAGLLKPSETLSLTCAVYGGSFSGYYWSWIRQPPGKGLEWIGEINHSGSTNYNPSLKSRVTISVDTSKNQFSLKLSSVTAADTAVYYCAREGVYEDYWGQGTLVTVSS VL: EIVLTQSPATLSLSPGERATLSCRASQSVSNYLAWYQQKPGQAPRLLIYDAYNRATGIPARFSGSGSGTDFTLTISSLEPEDFAVYYCQQRSNWPLTFGQGTRLEIKR",EC50 (read off the curve),[5],~3 nM
same,EC50 (read off the curve),[4],~0.3 nM
same,EC50 (read off the curve),[6],~2 nM
same,IC50 (read off the curve),[7],~3 nM
"ATX-P-875 (antibody, human IgG1, kappa, V domains shown, also called mAb A) VH: not shown VL: DIQMTQSPSSLSASVGDRVTITCRASQSISSYLNWYQQKPGKAPKLLIYAASSLQSGVPSRFSGSGSGTDFTLTISSLQPEDFATYYCQQYDNLPITFGQGTRLEIKR",IC50 (read off the curve),[8],~0.7 nM
same,EC50 (read off the curve),[9],~0.9 nM
same,EC50 (read off the curve),[10],~0.6 nM
"4A5 (antibody, V domains shown) VH: EVKLVESGGGLVKPGGSLKLSCAASGFTFSSYAMSWVRQIPEKRLEWVASISRGGTTYYPDSVKGRFTISRDNVRNILYLQMSSLRSEDTAMYYCGRYDYDGYYAMDYWGQGTSVTVSS VL: DIKMTQSPSSMYASLGERVTITCKASPDINSYLSWFQQKPGKSPKTLIYRANRLVDGVPSRFSGGGSGQDYSLTINSLEYEDMGIYYCLQYDEFPYTFGGGTKLEMK",Kd,Hu/Cy/Rh ROR1 - His [11],2.81 nM
